Measured values published in patent US20230183305A1, “KERATIN BD-11, PREPARATION METHOD THEREFOR AND PHARMACEUTICAL COMPOSITION AND USE THEREOF” (INSTITUTE OF MATERIA MEDICA, CHINESE ACADEMY OF MEDICAL …, priority 2019, published 2023).

What was measured:
[1] = tested on: yeast-induced fever model in SD rats; experiment: Yeast-induced fever model in SD rats; format: in vivo, rat; conditions: for Body temperature 2 hours after modeling: 2 h after 20% yeast s.c.; for Body temperature 2 hours after modeling / Body temperature 4 hours after modeling / Body temperature 6 hours after modeling / Body temperature 8 hours after modeling: n=8; for Body temperature 4 hours after modeling: 4 h after 20% yeast s.c.; for Body temperature 6 hours after modeling: 6 h after 20% yeast s.c.; for Body temperature 8 hours after modeling: 8 h after 20% yeast s.c.
Description: • Animals: 230-260 grams of male SD rats;; • Drugs: yeast (OXOID LP0021), aspirin (SIGMA A2093), protein BD-11; • Instruments: electronic balance (SARTORIUS BP121S type), electronic clinical thermometer (CITIZEN CT-513W type).
Experiment grouping: • Normal control group; • Model group: yeast fever model; • Positive control group: Aspirin 300 mg/kg group; • Protein BD-11, 10 mg/kg group, 50 mg/kg group.
Preparation of experimental animals: After the experimental animals adapt to the experimental environment (temperature 22° C.±2° C., relative humidity 50%±2%) for 1 day. Pre-adaptation to measure rectal temperature at 8:00 and 15:00, rats were fasted and water was taken freely 12 h before experiment, and let the animal to empty its feces before measuring the rectal temperature. Apply petroleum jelly to the electronic thermometer probe before each temperature measurement. Insert the rat rectum 2 cm (can be marked at 2 cm to ensure that the depth of each insertion is consistent), and record the body temperature after the reading is stable.
Subcutaneous injection of dry yeast to replicate rat fever model: The body temperature of the rats was measured before modeling. Qualified rats with a body temperature of 36.2-37.3° C. were selected and randomly divided into groups with 8 rats in each group. After oral administration of aspirin and different doses of protein BD-11, 20% yeast suspension (10 ml/kg) was injected subcutaneously immediately, and the normal control group was injected intraperitoneally with an equal volume of normal saline. The body temperatures of the rats were monitored after 2 hours for a total of 8 hours.
According to the body temperature measured at each time point on the day of the experiment, calculate the mean, standard deviation and standard error of the body temperature of each group of rats. The data of each group was compared with TTEST, and P<0.05 was considered as a significant difference.
Immediately after oral administration of aspirin (300 mg/kg), protein BD-11 (10 mg/kg, 50 mg/kg), subcutaneous injection of 20% yeast was performed to establish a model. The animal body temperature was monitored at 2 hours, 4 hours, 6 hours, and 8 hours after modeling.

[2] = tested on: PLO-induced epilepsy in ICR mice; experiment: Pilocarpine (PLO) induced convulsive epilepsy in mice; format: in vivo, mouse; set-up: mortality rate: unit not given here; conditions: for Cases of deaths / Grade IV seizure rate / mortality rate / Cases of Grade IV: PLO 225 mg/kg i.p., 10 mice; for Cases of Grade IV: 30 min observation; for Grade II seizure incubation period / Grade III seizure incubation period / Grade IV seizure incubation period: mean±SEM; for Grade IV seizure incubation period: no Grade IV recorded as maximum 1800 s
Description: • Animals: male ICR mice; • Drugs: Pilocarpine HCl (PLO, pilocarpine, pilocarpine hydrochloride), Diazepam (diazepam tablets), protein BD-11.
Experiment grouping: • Model group: • Diazepam 2 mg/kg group; • Protein BD-11, 50 mg/kg group, 200 mg/kg group.
The drug was administered once in the afternoon the day before modeling, PLO-225 mg/kg (modeling agent) was injected intraperitoneally 1 hour after the test drug was administered intragastrically on the day of modeling. And positive drug can be administered once 20 minutes before modeling. Observe for 30 minutes after PLO injection.
Observation indicators: ①Seizure situation: the time of seizures from Grade II to Grade IV; (2)the time to death.
Seizure grade: Refer to Racine grading standard: Grade 0: No response; Grade I: manifested as twitching of facial muscles or the corners of the mouth; Grade II: can nod; Grade III: twitching of one limb; Grade IV: rigidity or body twitching; Grade V: generalized epilepsy (generalized tonic seizures).
Count the number of Grade IV seizures and deaths in each group of mice in the experiment; Grade II, III and IV incubation period. […] Chi-square test was used for statistics of the number of cases. The mean value and standard error of the incubation period were calculated, and TTEST was used to compare the model group with other groups. P<0.05 was considered as a significant difference.

[3] = tested on: ammonia water induced cough in ICR mice; experiment: Antitussive test, cough induced by ammonia water in mice; format: in vivo, mouse; conditions: for Incubation period (cough): 10% ammonia water 10 s; for Incubation period (cough) / Number of coughs: X±SEM, n=9; for Number of coughs: within 2 minutes
Description: • Animals: male ICR mice; • Drugs and reagents: dextromethorphan hydrobromide, ammonia water, 0.2% CMC-Na, protein BD-11; • Apparatus: Compressed nebulizer (403T type), balance (XS105DU type).
Experiment grouping: • Solvent control group; • Dextromethorphan 15 mg/kg group; • Protein BD-11, 20 mg/kg group, 50 mg/kg group.
Dextromethorphan and different doses of protein BD-11 (administration volume 10 ml/kg) were given orally in groups, and the solvent control group was given the same volume of distilled water. One hour later, mice were put into a sealed box and atomized 10% ammonia water for 10 seconds, and then observed and recorded the incubation period of cough in mice and the number of coughs in 2 minutes.
Record the time point of oral administration, the time point of atomization experiment, the incubation period of mice cough and the number of coughs within 2 minutes, respectively. The incubation period of cough refers to the number of seconds from the start of the atomization of ammonia to the occurrence of cough. The performance of coughing in mice is based on contraction of their abdominal muscles (breast contraction) and opening their mouths at the same time. Calculate the mean and standard error of each group of data, and use TTEST to compare the model group with other groups, and P<0.05 is considered as a significant difference.
Give dextromethorphan (15 mg/kg) and different doses of protein BD-11 (20 mg/kg, 50 mg/kg) in advance, One hour later, the mice were put into a sealed box and atomized 10% ammonia water for 10 seconds, and then the mice were observed and recorded the incubation period of coughing and the number of coughs within 2 minutes.

[4] = BD-11 50 mg/kg dose group, P<0.05

B1: BD-11: recombinant keratin, amino acid sequence SEQ ID NO:1, expressed in E. coli, band around 59 kD; Example 4 batch tested (protein, listed as Bos taurus)
chain: MSRQSTITFQTSSRRGFSTASATTPATSRSRFSSASVTHSPAGSGGLGRISGFGSRSLYNLGGTKRVSISGCGSNFRSGFGGRASSGFGVSGGFGYGGGIGGGHGGCGFSVCPPGGIQEVTVNQSLLTPLNLQIDPNIQRVRKEEREQIKTLNNKFASFIDKVRFLEQQNKVLETKWSLLQEQGTRTVRQSLEPFFEAYITDLRRQLDSITTERGRLDAELRTMQDVVEDFKVRYEDEINKRTAAENEFVALKKDVDAAYLNKVDLEAKANSLTDEINFLQMLFEAELCQMQTRVSDTSVVLSMDNNRSLDLDSIIAEVKAQYEEIANRSRAEAESWYQTKYEELQVTAGQHGDDLRNTKQEISETNRMIQRLRAEIDNVKKQCASLQTAIADAEQRGELALKDARAKLVDLEEALQKSKQDMARLLREYQELMNIKLALDVEIATYRKLLEGEECRLSGEGVSPVNISVVTSTVSSGYGGGSSIGSGSLGLSGGSGCSFMTSGGHSLGGSSFSNSSSRGLGGSGSSFKFVSTTSSSRKSYKH
B1 was tested, and the “Effect on increase in body temperature (summary)” value ([1]; 2, 4, 6 and 8 hours after modeling, dose not given) was “significantly inhibit the increase in body temperature”, the “Effect on the increase in body temperature of model rats” value ([1]; BD-11 10 mg/kg dose group, most time points P<0.05 vs model group) was “strong effect” and the “Body temperature 2 hours after modeling” value ([1]; BD-11 10 mg/kg oral) was 36.7±0.1 °C. The “Body temperature 4 hours after modeling” value ([1]; BD-11 10 mg/kg oral) was 37.0±0.1 °C, the “Body temperature 6 hours after modeling” value ([1]; BD-11 10 mg/kg oral) was 37.4±0.1 °C and the “Body temperature 8 hours after modeling” value ([1]; BD-11 10 mg/kg oral) was 37.3 ±0.1 °C. The “Body temperature 2 hours after modeling” value ([1]; BD-11 50 mg/kg oral) was 36.9 ± 0.2 °C, the “Body temperature 4 hours after modeling” value ([1]; BD-11 50 mg/kg oral) was 37.4 ± 0.1 °C and the “Body temperature 6 hours after modeling” value ([1]; BD-11 50 mg/kg oral) was 37.5 ± 0.1 °C. The “Body temperature 8 hours after modeling” value ([1]; BD-11 50 mg/kg oral) was 37.4 ±0.1 °C, the “Effect on the increase in body temperature of model rats” value ([1]; different doses of BD-11 (10, 50 mg/kg oral), after modeling) was “can inhibit the increase in body temperature of model rats to varying degrees” and the Cases of deaths ([2]; BD-11 50 mg/kg intragastric) was 0. For the same molecule, the “Grade IV seizure rate” value ([2]; BD-11 50 mg/kg intragastric) was 50%, the mortality rate ([2]; BD-11 50 mg/kg intragastric) was 0 and the “Cases of Grade IV” value ([2]; BD-11 50 mg/kg intragastric) was 5. For the same molecule, the “Grade II seizure incubation period” value ([2]; BD-11 50 mg/kg, PLO model) was 95 ± 6 s, the “Grade III seizure incubation period” value ([2]; BD-11 50 mg/kg, PLO model) was 164 ± 10 s and the “Grade IV seizure incubation period” value ([2]; BD-11 50 mg/kg, PLO model) was 1357 ± 154 s. The “Incubation period of epilepsy Grade III, comparison with model group” value ([2]; BD-11 200 mg/kg dose group, PLO model) was “statistically different from the model group”, the Cases of deaths ([2]; BD-11 200 mg/kg intragastric) was 0 and the “Grade IV seizure rate” value ([2]; BD-11 200 mg/kg intragastric) was 60%. For the same molecule, the mortality rate ([2]; BD-11 200 mg/kg intragastric) was 0, the “Cases of Grade IV” value ([2]; BD-11 200 mg/kg intragastric) was 6 and the “Grade II seizure incubation period” value ([2]; BD-11 200 mg/kg, PLO model) was 96 ± 6 s. The “Grade III seizure incubation period” value ([2]; BD-11 200 mg/kg, PLO model) was 164 ± 7 s, the “Grade IV seizure incubation period” value ([2]; BD-11 200 mg/kg, PLO model) was 1114 ± 191 s and the “Effect on incubation period of Grade III epilepsy in mice (summary)” value ([2]; dose not given) was “significantly prolong the incubation period of Grade III epilepsy”. The “Incubation period (cough)” value ([3]; BD-11 20 mg/kg oral) was 30.0 ± 3.2 s, the Number of coughs ([3]; BD-11 20 mg/kg oral) was 61.8±4.7 and the “Cough incubation period vs solvent control group” value [3, 4] was “significant improvement”. For the same molecule, the “Number of coughs vs solvent control group” value [3, 4] was “significant improvement effect”, the “Incubation period (cough)” value ([3]; BD-11 50 mg/kg oral) was 35.8 ± 2.0 s and the Number of coughs ([3]; BD-11 50 mg/kg oral) was 50.0±4.6. The “Effect on cough incubation period (summary)” value ([3]; dose not given) was “prolong the incubation period” and the “Effect on number of coughs (summary)” value ([3]; dose not given) was “significantly reduce the number of coughs”.
